Assay results: patent US20090048164A1
No end group written: not given here. FLAG = FLAG tag

The binders below were run against Recombinant human Bcl-xL with a 25 amino acid truncation of its C-terminus (human) (UniProt Q07817) (assay: competition phage ELISA).
Chain of Recombinant human Bcl-xL with a 25 amino acid truncation of its C-terminus (human) (Q07817 1-208): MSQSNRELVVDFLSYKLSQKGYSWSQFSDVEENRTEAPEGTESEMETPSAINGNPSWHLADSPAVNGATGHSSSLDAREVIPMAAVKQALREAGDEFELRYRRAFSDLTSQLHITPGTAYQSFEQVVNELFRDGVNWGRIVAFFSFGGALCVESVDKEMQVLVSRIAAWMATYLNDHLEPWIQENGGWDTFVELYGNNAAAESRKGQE

Row | Binder | Fold/wt | IC50
1 | NLWAAQRYGRELRAMSDEFVDSFKKG [Bad BH3 R14A, phage-displayed] | 2 fold | 4 nM
2 | NLWAAQRYGAELRRMSDEFVDSFKKG [Bad BH3 R10A, phage-displayed] | 1 fold | 3 nM
3 | NLWAAQRYGRELRRMSDEAVDSFKKG [Bad BH3 F19A, phage-displayed] | 12 fold | 27 nM
4 | NLWAAQRYGRELRRMSDEFVDSFKKE [Bad BH3 G26E, phage-displayed] | 1 fold | 3 nM
5 | NLWAAQRYGRELRRMSDEFADSFKKG [Bad BH3 V20A, phage-displayed] | 1 fold | 3 nM
6 | NLWAAQRYGRELRRMSDEFVASFKKG [Bad BH3 D21A, phage-displayed] | 1 fold | 2 nM
7 | ALWAAQRYGRELRRMSDEFVDSFKKG [Bad BH3 N1A, phage-displayed] | 1 fold | 2 nM
8 | NLWAAQRYGRELRRMSDEFVDSFKAG [Bad BH3 K25A, phage-displayed] | 2 fold | 4 nM
9 | NLWAAQRYGRELRRMSAEFVDSFKKG [Bad BH3 D17A, phage-displayed] | 7 fold | 16 nM
10 | NLWAAQRYGRELRRMSDEFVDAFKKG [Bad BH3 S22A, phage-displayed] | 2 fold | 4 nM
11 | NLWAAARYGRELRRMSDEFVDSFKKG [Bad BH3 Q6A, phage-displayed] | 2 fold | 3 nM
12 | NLWAAQRYGRELRRMSDAFVDSFKKG [Bad BH3 E18A, phage-displayed] | 2 fold | 4 nM
13 | NLWEAQRYGRELRRMSDEFVDSFKKG [Bad BH3 A4E, phage-displayed] | 2 fold | 4 nM
14 | NLWAAQAYGRELRRMSDEFVDSFKKG [Bad BH3 R7A, phage-displayed] | 2 fold | 4 nM
15 | NLWAAQRYGRELARMSDEFVDSFKKG [Bad BH3 R13A, phage-displayed] | 1 fold | 3 nM
16 | NLWAEQRYGRELRRMSDEFVDSFKKG [Bad BH3 A5E, phage-displayed] | 5 fold | 12 nM
17 | NLAAAQRYGRELRRMSDEFVDSFKKG [Bad BH3 W3A, phage-displayed] | 1 fold | 3 nM
18 | NLWAAQRYGRELRRMSDEFVDSFAKG [Bad BH3 K24A, phage-displayed] | 2 fold | 4 nM
19 | NLWAAQRAGRELRRMSDEFVDSFKKG [Bad BH3 Y8A, phage-displayed] | 3 fold | 7 nM
20 | NLWAAQRYGRELRRASDEFVDSFKKG [Bad BH3 M15A, phage-displayed] | 3 fold | 6 nM
21 | NLWAAQRYGRELRRMSDEFVDSAKKG [Bad BH3 F23A, phage-displayed] | 2 fold | 4 nM
22 | NAWAAQRYGRELRRMSDEFVDSFKKG [Bad BH3 L2A, phage-displayed] | 2 fold | 4 nM

What follows are binders tested against mouse Mcl-1 with truncations of 151 amino acid residues at its N-terminus and 23 residues at its C-terminus (mouse) (UniProt P97287) (assay: competition phage ELISA).
Chain of mouse Mcl-1 with truncations of 151 amino acid residues at its N-terminus and 23 residues at its C-terminus (mouse) (P97287 152-308): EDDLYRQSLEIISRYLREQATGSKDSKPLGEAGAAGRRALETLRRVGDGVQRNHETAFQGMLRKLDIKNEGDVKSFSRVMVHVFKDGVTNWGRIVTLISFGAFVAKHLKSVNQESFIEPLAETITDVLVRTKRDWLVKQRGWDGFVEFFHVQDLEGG

Row | Binder | Fold/wt | IC50
23 | RAELPPEFAAQLRKIGDKVYCTWSAP-{GGGT-g3(249-406)} (not fully specified (N-terminus)) [mNoxaA BH3 wild type, phage-displayed] | 1 fold | 39 nM
24 | {FLAG}-RAELPPEFAAQLRKIGDKVYCTWSEP-{GGGT-g3(249-406)} [mNoxaA BH3 A25E, phage-displayed] | 1 fold | 33 nM
25 | PSSTMGQVGRQLAIAGDDINRRYDSE [Bak BH3 I15A, phage-displayed] | 25 fold | 517 nM
26 | RAELPPEFAAQLRKIGDKVACTWSAP-{GGGT-g3(249-406)} (not fully specified (N-terminus)) [mNoxaA BH3 Y20A, phage-displayed] | 1 fold | 32 nM
27 | {FLAG}-RAELPPAFAAQLRKIGDKVYCTWSAP-{GGGT-g3(249-406)} [mNoxaA BH3 E7A, phage-displayed] | 1 fold | 43 nM
28 | {FLAG}-RAELPPEFEAQLRKIGDKVYCTWSAP-{GGGT-g3(249-406)} [mNoxaA BH3 A9E, phage-displayed] | 2 fold | 76 nM
29 | {FLAG}-RAELAPEFAAQLRKIGDKVYCTWSAP-{GGGT-g3(249-406)} [mNoxaA BH3 P5A, phage-displayed] | 1 fold | 20 nM
30 | RAELPPEFAAQLRKIGDKVYCTASAP-{GGGT-g3(249-406)} (not fully specified (N-terminus)) [mNoxaA BH3 W23A, phage-displayed] | 2 fold | 69 nM
31 | PSSTMGQAGRQLAIIGDDINRRYDSE [Bak BH3 V8A, phage-displayed] | 4 fold | 79 nM
32 | PSSTMGQVERQLAIIGDDINRRYDSE [Bak BH3 G9E, phage-displayed] | 21 fold | 438 nM
33 | {FLAG}-RAELPAEFAAQLRKIGDKVYCTWSAP-{GGGT-g3(249-406)} [mNoxaA BH3 P6A, phage-displayed] | < 1 fold | 8 nM
34 | {FLAG}-AAELPPEFAAQLRKIGDKVYCTWSAP-{GGGT-g3(249-406)} [mNoxaA BH3 R1A, phage-displayed] | 1 fold | 20 nM
35 | {FLAG}-RAELPPEFAAQLRKIGDKVYCTWAAP-{GGGT-g3(249-406)} [mNoxaA BH3 S24A, phage-displayed] | < 1 fold | 13 nM
36 | {FLAG}-RAELPPEFAAQLRKIGDAVYCTWSAP-{GGGT-g3(249-406)} [mNoxaA BH3 K18A, phage-displayed] | < 1 fold | 11 nM
37 | {FLAG}-RAELPPEAAAQLRKIGDKVYCTWSAP-{GGGT-g3(249-406)} [mNoxaA BH3 F8A, phage-displayed] | 1 fold | 24 nM
38 | {FLAG}-RAELPPEFAAQLRKIGDKVYCAWSAP-{GGGT-g3(249-406)} [mNoxaA BH3 T22A, phage-displayed] | < 1 fold | 14 nM
39 | PSSTMGQVGRQLEIIGDDINRRYDSE [Bak BH3 A13E, phage-displayed] | 17 fold | 356 nM
40 | {FLAG}-RAALPPEFAAQLRKIGDKVYCTWSAP-{GGGT-g3(249-406)} [mNoxaA BH3 E3A, phage-displayed] | 1 fold | 30 nM
41 | QEDIIRNIARHLAQAGDSMDRSIPPG [Bid BH3 V15A, phage-displayed] | 2 fold | 245 nM
42 | {FLAG}-RAELPPEFAAQLRKIGDKVYATWSAP-{GGGT-g3(249-406)} [mNoxaA BH3 C21A, phage-displayed] | 1 fold | 19 nM
43 | PSSTMGQVGRQLAIIGDDANRRYDSE [Bak BH3 I19A, phage-displayed] | 9 fold | 185 nM
44 | {FLAG}-RAELPPEFAAALRKIGDKVYCTWSAP-{GGGT-g3(249-406)} [mNoxaA BH3 Q11A, phage-displayed] | 1 fold | 22 nM
45 | {FLAG}-REELPPEFAAQLRKIGDKVYCTWSAP-{GGGT-g3(249-406)} [mNoxaA BH3 A2E, phage-displayed] | 1 fold | 22 nM
46 | PSSTMGQVGRQAAIIGDDINRRYDSE [Bak BH3 L12A, phage-displayed] | 20 fold | 414 nM
47 | {FLAG}-RAELPPEFAEQLRKIGDKVYCTWSAP-{GGGT-g3(249-406)} [mNoxaA BH3 A10E, phage-displayed] | 1 fold | 43 nM
48 | {FLAG}-RAEAPPEFAAQLRKIGDKVYCTWSAP-{GGGT-g3(249-406)} [mNoxaA BH3 L4A, phage-displayed] | 1 fold | 24 nM
49 | {FLAG}-RAELPPEFAAQARKIGDKVYCTWSAP-{GGGT-g3(249-406)} [mNoxaA BH3 L12A, phage-displayed] | 2 fold | 67 nM
50 | {FLAG}-RAELPPEFAAQLRAIGDKVYCTWSAP-{GGGT-g3(249-406)} [mNoxaA BH3 K14A, phage-displayed] | 1 fold | 37 nM
51 | {FLAG}-RAELPPEFAAQLAKIGDKVYCTWSAP-{GGGT-g3(249-406)} [mNoxaA BH3 R13A, phage-displayed] | 1 fold | 57 nM
